From patent US20260009804A1 (GEORGIA TECH RESEARCH, published 2026)

Columns and labels:
hCCLZ (human myocilin …) = molecular target: T1, hCCLZ (human myocilin coiled-coil/leucine zipper, residues 69-185) (human, UniProt Q99972 69-185); assay: dot blot, purified construct
T1 construct: Made in E. coli (pET-30 XaLIC); Tags were cleaved for immunization and panning; the tagged form was used in cell-lysate dot blots; also called human coiled-coil/leucine zipper
T1 sequence: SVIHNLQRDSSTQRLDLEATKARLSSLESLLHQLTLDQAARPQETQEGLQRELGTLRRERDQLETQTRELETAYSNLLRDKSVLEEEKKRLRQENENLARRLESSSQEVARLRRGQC
Experimental: (§1) Dot Blots and Western Blots: Dot and western blots were conducted using protocols previously described in detail (Patterson-Orazem, et al., Exp Eye Res, 173:109-112 (2018)). Briefly, protein samples were immobilized on methanol-activated polyvinylidene difluoride membranes (Millipore®) by electrophoresis for Western blots and by direct deposition of 2 μL sample per dot for dot blots. Membranes were blocked overnight in 2% milk in PBS supplemented with 0.5% TWEEN-20, then probed with primary antibodies. Custom scAbs were tested at 1 μg/mL; IgGs were tested at 0.5 μg/mL to account for bivalency. Protein expression in cell lysates was confirmed using 1:1000 mouse anti-His antibody (RRID: AB_2533947). […] Custom scAbs were detected with 1:2000 (whole cell lysate dot blots) or 1:5000 (all other experiments) dilution of HRP-conjugated goat anti-human κ light chain secondary antibody (RRID: AB_619883). Binding of control antibodies and custom IgGs was detected using 1:2000 (whole cell lysate dot blots) or 1:5000 (all other experiments) dilution of HRP-conjugated goat anti-mouse IgG (H+L) secondary antibody (RRID: AB_2533947).
(§2) Conformational specificity was assessed by comparing results from dot blots (FIGS. 4A-4D) and Western blots (FIG. 4E-4H), experiments were conducted in parallel with specific quantities of purified myocilin constructs. […]

[1] = molecular target: T2, hNTD (human myocilin N-terminal domain, residues 33-226) (human, UniProt Q99972 33-226); assay: dot blot, purified construct
T2 construct: also called longer hNTD construct
T2 sequence: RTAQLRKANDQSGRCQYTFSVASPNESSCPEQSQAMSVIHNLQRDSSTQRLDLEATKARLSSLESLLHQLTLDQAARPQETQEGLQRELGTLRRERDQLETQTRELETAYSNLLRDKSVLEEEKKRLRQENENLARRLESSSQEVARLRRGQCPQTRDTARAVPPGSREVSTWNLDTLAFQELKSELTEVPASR
Experimental: as §1, §2

[2] = molecular target: T3, mLZ (mouse myocilin leucine zipper, residues 93-171) (mouse, UniProt O70624 93-171); assay: summary of ELISA and dot blot
T3 construct: Arose when Factor Xa cleaved mCCLZ after TLGR92; also called mouse leucine zipper; mouse LZ
T3 sequence: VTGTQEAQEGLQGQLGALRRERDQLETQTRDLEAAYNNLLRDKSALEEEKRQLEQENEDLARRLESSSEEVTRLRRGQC

[3] = molecular target: T4, full-length endogenous human myocilin from spent medium of human trabecular meshwork (hTM) cells (human, UniProt Q99972 33-504); assay: immunoprecipitation from spent hTM medium
T4 construct: Secreted protein; It was heparin-enriched for dot blots and used directly from spent medium for immunoprecipitation; also called full-length myocilin; hTM-secreted myocilin
T4 sequence: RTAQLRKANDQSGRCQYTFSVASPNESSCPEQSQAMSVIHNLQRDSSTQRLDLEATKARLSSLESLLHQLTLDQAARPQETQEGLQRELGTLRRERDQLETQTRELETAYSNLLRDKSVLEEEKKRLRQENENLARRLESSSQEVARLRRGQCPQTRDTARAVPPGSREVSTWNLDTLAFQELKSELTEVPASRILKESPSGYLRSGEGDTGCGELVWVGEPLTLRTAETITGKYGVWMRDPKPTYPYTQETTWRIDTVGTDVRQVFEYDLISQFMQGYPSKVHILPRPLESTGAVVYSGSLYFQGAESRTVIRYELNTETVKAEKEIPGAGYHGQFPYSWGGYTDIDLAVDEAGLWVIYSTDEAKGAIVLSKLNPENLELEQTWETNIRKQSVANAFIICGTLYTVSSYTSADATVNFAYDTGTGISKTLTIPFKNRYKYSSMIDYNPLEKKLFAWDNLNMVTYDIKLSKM
Experimental: Immunoprecipitation: Antibodies in IgG format (0.5 ng/ml) were incubated with 10 mL spent hTM medium (experiment) or 10 mL buffer control (50 mM HEPES pH 7.5, 200 mM NaCl, 10% glycerol) overnight at 4° C. on a rocker. Subsequently, Pierce™ Protein A/G Plus agarose suspension (50 μL, ThermoFisher Scientific®) was added, and samples were rocked an additional 2 hours at room temperature. Resin was pelleted by centrifugation (10 minutes at 1,000× g), washed at least 5 times with 500 uL buffer. Bound proteins were eluted by adding 50 μL 2× Laemmli buffer, incubated for 10 minutes at room temperature, followed by pelleting and removing the supernatant. Samples were supplemented to 3% v/v β-mercaptoethanol and heated 10 minutes at 95° C. prior to SDS-PAGE and Western blot analysis.

Measured: binding result

B1: 2A4 IgG (monoclonal antibody 2A4) (antibody, V domains shown)
VH: EVQLQQSGAELMRSGASVKLSCTASGFNIKDYYMHWVKQRPEQGLEWIGWIDPENGDTEYAPKFQGKATMTADTSSNTAYLQLSSLTSEDTAVYYCNPFVYWGQGTLVTVSA
VL: DIVMTQSQKFMSTSVGDRVSVTCKASQNVGTNVAWYQQKPGQSPKALIYSASYRYSGVPDRFTGSGSGTDFTLTISNVQSEDLAEYSCQQYNSYPYTFGGGTKLEIKR
notes: Full length chimeric human IgG1 with kappa light chain (IgG-Abvec and IgK-Abvec vectors), produced in CHO-K1 cells
binds: all assays above
